Among the data in paper PMC10730821 are size of the VSD-VSD oligomer between channels and stoichiometry N values, retold here.

Common to all, as to assay: high-speed atomic force microscopy (HS-AFM); channel held by its C-terminal His-tag on Ni2+-coated mica, reconstituted into a DMPC bilayer, extracellular side imaged; 20 mM Tris pH 7.4, 150 mM NaCl (WT, E32Q/N49K) or 50 mM NaCl (N49K); 5 or 10 frames/s; no membrane potential
The target of experiment [1] is NavAb channel E32Q/N49K mutant, C-terminal cytoplasmic domain truncated, C-terminal His-tag (Arcobacter butzleri) (UniProt A8EVM5).
Experiment [2] concerns the target NavAb channel N49K mutant, C-terminal cytoplasmic domain truncated, C-terminal His-tag (Arcobacter butzleri) (UniProt A8EVM5).
In experiment [3] the target is NavAb channel, wild type, C-terminal cytoplasmic domain truncated, C-terminal His-tag (Arcobacter butzleri) (UniProt A8EVM5).

In general, stoichiometry N refers to the number of molecules, sites or subunits per partner or assembly. Regarding “NavAb channel E32Q/N49K mutant, C-terminal cytoplasmic domain truncated, C-terminal His-tag (from UniProt A8EVM5 1-230) (natural protein)”, in experiment [1], the size of the VSD-VSD oligomer between channels turned out to be 2 and the stoichiometry N is 4.

The substance “NavAb channel N49K mutant, C-terminal cytoplasmic domain truncated, C-terminal His-tag (from UniProt A8EVM5 1-230) (natural protein)” returned a stoichiometry N in experiment [2] of 4.

As for “NavAb channel, wild type, C-terminal cytoplasmic domain truncated, C-terminal His-tag (from UniProt A8EVM5 1-230) (natural protein)”, the stoichiometry N in experiment [3] was determined as 4.
